The values that follow come from patent publication US20220089683A1 (ACCELERON PHARMA, published 2022).

First the molecules themselves.
B2: GDF11 (ligand, UniProt O95390 299-407, looked up)
chain: NLGLDCDEHSSESRCCRYPLTVDFEAFGWDWIIAPKRYKANYCSGQCEYMFMQKYPHTHLVQQANPRGSAGPCCTPTKMSPINMLYFNDKQQIIYGKIPGMVVDRCGCS
notes: also called BMP11

Assay [1] concerns the target T1, activin B (UniProt P09529 293-407).
T1 sequence (looked up): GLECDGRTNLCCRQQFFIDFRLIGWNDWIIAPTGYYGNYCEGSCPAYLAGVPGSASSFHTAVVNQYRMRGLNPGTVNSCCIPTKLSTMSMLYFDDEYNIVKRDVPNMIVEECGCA
As to the kind of experiment: SPR (Biacore).

Assay [2] has as its target B2. As to the kind of experiment: SPR (Biacore).
For assay [3], the target named is T2, activin A (UniProt P08476 311-426).
T2 sequence (looked up): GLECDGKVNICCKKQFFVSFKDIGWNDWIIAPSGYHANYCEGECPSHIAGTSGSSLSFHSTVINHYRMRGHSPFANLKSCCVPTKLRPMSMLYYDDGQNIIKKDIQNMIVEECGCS
The experiment in a line: SPR (Biacore).

Assay [4] has as its target T3, ActRIIA-mFc (human, UniProt P27037 21-135).
T3 construct: also called hActRIIA-mFc; not shown: mouse Fc domain
As to the kind of experiment: SPR (Biacore), ligand amine-coupled on CM5 chip, fusion protein loaded in solution. As to the method: GDF-11 or activin A were immobilized on a Biacore™ CM5 chip using standard amine-coupling procedure. ActRIIA-hFc and ActRIIA-mFc proteins were loaded onto the system, and binding was measured.

T3 sequence (P27037 21-135): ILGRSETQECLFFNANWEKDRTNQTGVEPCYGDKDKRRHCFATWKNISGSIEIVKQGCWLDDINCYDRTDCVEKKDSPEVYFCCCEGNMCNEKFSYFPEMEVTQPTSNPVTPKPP

B1: ActRIIB(20-134)-hFc (Fc fusion)
chain: GRGEAETRECIYYNANWELERTNQSGLERCEGEQDKRLHCYASWRNSSGTIELVKKGCWLDDFNCYDRQECVATEENPQVYFCCCEGNFCNERFTHLPEAGGPEVTYEPPPTAPTGGGTHTCPPCPAPELLGGPSVFLFPPKPKDTLMISRTPEVTCVVVDVSHEDPEVKFNWYVDGVEVHNAKTKPREEQYNSTYRVVSVLTVLHQDWLNGKEYKCKVSNKALPVPIEKTISKAKGQPREPQVYTLPPSREEMTKNQVSLTCLVKGFYPSDIAVEWESNGQPENNYKTTPPVLDSDGSFFLYSKLTVDKSRWQQGNVFSCSVMHEALHNHYTQKSLSLSPGK
notes: also called ActRIIB-hFc; hActRIIB-hFc
Regarding B1, the results for the Kd in assay [1], in assay [2] and in assay [3] were 12 pM, 36 pM and 16 pM, respectively.
For the molecule B2, in assay [4], the binding result is on record as “binds”.
